Sequences and labels used below:
B1: HDV Ribozyme (parent)
chain: GGCCGGCAUGGUCCCAGCCUCCUCGCUGGCGCCGGCUGGGCAACAUUCCGAGGGGACCGUCCCCUCGGUAAUGGCGAAUGGGACCCA

The text below walks through data of the RNAGym collection of RNA variant scans (doi:10.7554/elife.80360).

The data set covers variants of B1. Kind of data set: self-cleavage, relative activity (ratio to wild type); higher = more cleavage; co-transcriptional.
Turning to GGCCGGCAUGGUCCCAGCAUCCUCGCUGGCGCCGGCUGGGCAACAUUCCGGGGGGACCGUCCCCUCGGUAAUGGCGAAUGGGACCCA [C19A A51G], the self-cleavage turned out to be 0.0712.
The figure for GGCCGGCAUGGUCCCAGCAUCCUCGCUGGCGCCGGCUGGGCAACAUUCCGUGGGGACCGUCCCCUCGGUAAUGGCGAAUGGGACCCA [C19A A51U] is 0.175.
The figure for GGCCGGCAUGGUCCCAGCAUCCUCGCUGGCGCCGGCUGGGCAACAUUCAGAGGGGACCGUCCCCUCGGUAAUGGCGAAUGGGACCCA [C19A C49A] is 0.0504.
The figure for GGCCGGCAUGGUCCCAGCAUCCUCGCUGGCGCCGGCUGGGCAACAUUCGGAGGGGACCGUCCCCUCGGUAAUGGCGAAUGGGACCCA [C19A C49G] is 0.0733; for GGCCGGCAUGGUCCCAGCAUACUCGCUGGCGCCGGCUGGGCAACAUUCCGAGGGGACCGUCCCCUCGGUAAUGGCGAAUGGGACCCA [C19A C21A] it is 0.142.
GGCCGGCAUGGUCCCAGCAUGCUCGCUGGCGCCGGCUGGGCAACAUUCCGAGGGGACCGUCCCCUCGGUAAUGGCGAAUGGGACCCA [C19A C21G]: the self-cleavage amounted to 0.166.
The figure for GGCCGGCAUGGUCCCAGUCUCCUCGCUGGCGCCGGCGGGGCAACAUUCCGAGGGGACCGUCCCCUCGGUAAUGGCGAAUGGGACCCA [C18U U37G] is 0.128.
The figure for GGCCGGCAUGGUCCCAGUCUCCUCGCUGGCGCCGGCCGGGCAACAUUCCGAGGGGACCGUCCCCUCGGUAAUGGCGAAUGGGACCCA [C18U U37C] is 0.554; for GGCCGGCAUGGUCCCAGUCUCCUCGCUGGCGCCGGCAGGGCAACAUUCCGAGGGGACCGUCCCCUCGGUAAUGGCGAAUGGGACCCA [C18U U37A] it is 0.0773; for GGCCGGCAUGGUCCCAGCAUCCUCGCUGGCGCCGGCUGGGCAACAUUCCGAGGGGACCGUCACCUCGGUAAUGGCGAAUGGGACCCA [C19A C62A] it is 0.0536.
The figure for GGCCGGCAUGGUCCCAGUCUCCUCGCUGGCGCCGGCUGGGCAACAUUCCGAGGGGACCGUCCCCUCGGUAAUGGCGAAUGGCACCCA [C18U G82C] is 0.166; for GGCCGGCAUGGUCCCAGUCUCCUCGCUGGCGCCGGCUGGGCAACAUUCCGAGGGGACCGCCCCCUCGGUAAUGGCGAAUGGGACCCA [C18U U60C] it is 0.7.
Take GGCCGGCAUGGUCCCAGUCUCCUCGCUGGCGCCGGCUGGGCAACACUCCGAGGGGACCGUCCCCUCGGUAAUGGCGAAUGGGACCCA [C18U U46C]: the self-cleavage turned out to be 0.374.
The figure for GGCCGGCAUGGUCCCAGUCUCCUCGCUGGCGCCGGCUGGGCAACAUUCCGAGGGGACCGUCCCCUCGGUAAUGGCGAAAGGGACCCA [C18U U79A] is 0.178.
The figure for GGCCGGCAUGGUCCCAGUCUCCUCGCUGGCGCCGGCUGGGCAACAUUCCGAGGGGACCGUCCCCUCGGUAAUGGCGAACGGGACCCA [C18U U79C] is 0.168; for GGCCGGCAUGGUCCCAGCAUCCUCGCUGGCGCCGGCUGGGCAACAUUCCGAGGGGACCGUACCCUCGGUAAUGGCGAAUGGGACCCA [C19A C61A] it is 0.12; for GGCCGGCAUGGUCCCAGCAUCCUCGCUGGCGCCGGCUGGGCAACAUUCCGAGGGGACCGUUCCCUCGGUAAUGGCGAAUGGGACCCA [C19A C61U] it is 0.0671.
The figure for GGCCGGCAUGGUCCCAGCAUCCUCGCUGGCGCCGGCUGGGCAACAUUCCGAGGGGACCGUGCCCUCGGUAAUGGCGAAUGGGACCCA [C19A C61G] is 0.095; for GGCCGGCAUGGUCCCAGCAUCCUGGCUGGCGCCGGCUGGGCAACAUUCCGAGGGGACCGUCCCCUCGGUAAUGGCGAAUGGGACCCA [C19A C24G] it is 0.158.
Take GGCCGGCAUGGUCCCAGUCUCCUCGCUGGCGCCGGCUGGGCAACAUCCCGAGGGGACCGUCCCCUCGGUAAUGGCGAAUGGGACCCA [C18U U47C]: the self-cleavage is 0.332.
The figure for GGCCGGCAUGGUCCCAGUCUCCUCGCUGGCGCCGGCUGGGCAACAUACCGAGGGGACCGUCCCCUCGGUAAUGGCGAAUGGGACCCA [C18U U47A] is 0.293; for GGCCGGCAUGGUCCCAGCAUCCUCGCUGGCGCCGGCUGGGGAACAUUCCGAGGGGACCGUCCCCUCGGUAAUGGCGAAUGGGACCCA [C19A C41G] it is 0.
For GGCCGGCAUGGUCCCAGCAUCCUCGCUGGCGCCGGCUGGGUAACAUUCCGAGGGGACCGUCCCCUCGGUAAUGGCGAAUGGGACCCA [C19A C41U], the self-cleavage is 0.0382.
The figure for GGCCGGCAUGGUCCCAGCAUCCUCGCUGGCGCCGGCUGGGAAACAUUCCGAGGGGACCGUCCCCUCGGUAAUGGCGAAUGGGACCCA [C19A C41A] is 0.0268; for GGCCGGCAUGGUCCCAGCAUCCUCGCUGGCGCCGGCUGGGCAACGUUCCGAGGGGACCGUCCCCUCGGUAAUGGCGAAUGGGACCCA [C19A A45G] it is 0.0369; for GGCCGGCAUGGUCCCAGCAUCCUCGCUGGCGCCGGCUGGGCAACCUUCCGAGGGGACCGUCCCCUCGGUAAUGGCGAAUGGGACCCA [C19A A45C] it is 0.0755.
As for GGCCGGCAUGGUCCCAGCAUCCUCGCUGGCGCCGGCUGGGCAACUUUCCGAGGGGACCGUCCCCUCGGUAAUGGCGAAUGGGACCCA [C19A A45U], the figure is 0.199.
As for GGCCGGCAUGGUCCCAGCAUCCUCGCUGGCGCCGGCUGGGCCACAUUCCGAGGGGACCGUCCCCUCGGUAAUGGCGAAUGGGACCCA [C19A A42C], the figure is 0.026.
Consider GGCCGGCAUGGUCCCAGCAUCCUCGCUGGCGCCGGCUGGGCUACAUUCCGAGGGGACCGUCCCCUCGGUAAUGGCGAAUGGGACCCA [C19A A42U], for which the self-cleavage worked out at 0.0216.
The figure for GGCCGGCAUGGUCCCAGUCUCCUCGCUGGCGCCGGCUGGGCAACAUUCCGAGGGGACCGUCCCCUCGGUAAUGACGAAUGGGACCCA [C18U G74A] is 0.0639; for GGCCGGCAUGGUCCCAGCAUCCUCGCUGGCGCCGGCUGGGCAACAUUCCGAGGGGACUGUCCCCUCGGUAAUGGCGAAUGGGACCCA [C19A C58U] it is 0.168.
As for GGCCGGCAUGGUCCCAGCAUCCUCGCUGGCGCCGGCUGGGCAACAUUCCGAGGGGACGGUCCCCUCGGUAAUGGCGAAUGGGACCCA [C19A C58G], the figure is 0.0519.
